The values below come from the nanobody polyreactivity screen of Harvey et al. (2022).

This data set can be described thus: yeast display, Sf9 membrane polyspecificity reagent, FACS + sequencing; frameworks hold sequencing errors. The essentials: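 Galactose-induced (36–48 hours) yeast carrying a synthetic nanobody display library were exposed to 10% biotinylated, detergent-solubilized Sf9 membrane reagent at 4 °C for 1 hour. FACS followed streptavidin microbead enrichment, using low and high (top ~1%) gates for expression (anti-HA) and reagent binding (streptavidin). Colony PCR, MiSeq 2 × 250 sequencing and CDR-length filtering followed. Labels for polyreactivity reflect the gate of origin.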
For “QVQLVESGGGLVQAGGSLRLSCAASGSTFFYYAMVWYRQAPGKERELVAAISQSSASTYYADSVKGRFTISRDNAKNTVYLQMNSLKPEDTAVYYCAAARGYWWYDYWGQGTQVTVSS”, the “polyreactivity (PSR sort gate)” value is on record as “high polyreactivity”.

“QVQLVESGGGLVQAGGSLRLSCAASGSTFGANAMGWYRQAPGKEREFVAAISRSGVRTYYADTVKGRFTMSRDNAKITVYFQMNSLKPEDTAVYYCAADGYWWTYTRYDYWGQGTQVTVSS”: the “polyreactivity (PSR sort gate)” value is given as “low polyreactivity”.

As to “QVQLVESGGGLVQAGGSLRLSCAASGSTFGAYAMGWYRQAPGKERELVAAINRGTSTNYADSVKGRFTISRDNAKNTVYLQMNSLKPEDTAVYYCAVAVLPWQLYSESYAEYDYWGQGTQVTVSS”, the “polyreactivity (PSR sort gate)” value is listed as “low polyreactivity”.

Take “QVQLVESGGGLVQAGGSLRLSCAASGSTFGAYVMGWSRQAPGKERELVAGITYSGGTTYYAYSVKGRFTISRDNSKNTVYLQMNILKPEDTAVYYCNVSQHYSRRLKKWQMDYWGQGTQVTVSS”: the “polyreactivity (PSR sort gate)” value is reported as “high polyreactivity”.

Turning to “QVQLVESGGGLVQAGGSLRLSCAASGSTFGDNAMGWYRQAPGKEREFVATISWDTATTYYADSVKARFTISRDNAKNTVYLQMNSLKPEDTAVYYCAARATAYYTVPSYADVDYWGQGTQVTVSS”, the “polyreactivity (PSR sort gate)” value was “low polyreactivity”.

Regarding “QVQLVESGGGLVQAGGSLRLSCAASGSTFGDNAMGWYRQAPGKERELVARISSGGNTYYADSVKGRFTISRDNAKNTVYLQMNSLKPEFTAVYYCAADIIVRYKKFPYYYWGQGTQVNVSS”, the “polyreactivity (PSR sort gate)” value is reported as “high polyreactivity”.

Take “QVQLVESGGGLVQAGGSLRLSCAASGSTFGDYAMGWYRQAPGKERELVAAISRSAGSTYYADSVKGRFTISRDNAKNTVYLQMNSLKPEDTAVYYCAAEYQYHWAYIYYYWGQGTQVTVSS”: the “polyreactivity (PSR sort gate)” value is “high polyreactivity”.

Turning to “QVQLVESGGGLVQAGGSLRLSCAASGSTFGDYAMGWYRQGPGKERELVASINQNGGDTYYADSVKGRFTISRDNAKNTVYLQMNSLKPEDTAVYYCAAEAGYYFQTVAIDMGYWGQGTQVTVSS”, the “polyreactivity (PSR sort gate)” value is given as “low polyreactivity”.

For the sequence “QVQLVESGGGLVQAGGSLRLSCAASGSTFGEYAMGWYRQAPGKERELVAAISWSGDTTYYADSVKGRFTISRDNAKNTVYLQMNSLKPEDTAVYYCAARDYDRVGEDYWGQGTQVTVSS”, the “polyreactivity (PSR sort gate)” value was “low polyreactivity”.

With “QVQLVESGGGLVQAGGSLRLSCAASGSTFGFNAMGWYRQAPGKERELVAAITKSGGSTYYADSVKGRFTISRDNAKNTVYLQMNSLKPEDTAVYYCAARRSGRKYDYWGQGTQVTVSS”, the “polyreactivity (PSR sort gate)” value is on record as “high polyreactivity”.

“QVQLVESGGGLVQAGGSLRLSCAASGSTFGFNVMGWYRQAPGKERELVAVITSDGNTYYADSVKGRFTISRDNAKNTVYFQMNSLIPEDTAVYYCAVSELGTPYGYWGQGTQVTVSS”: the “polyreactivity (PSR sort gate)” value was “low polyreactivity”.

In the case of “QVQLVESGGGLVQAGGSLRLSCAASGSTFGFYAMGWYRQAPGKERELVAAITASGDSTYYADSVKGRFTISRDNAKNTVYLQMNSLKPEDTAVYYCNAVWRYYRKRRAGDFGYWGQGTQVTVSS”, the “polyreactivity (PSR sort gate)” value was “low polyreactivity”.

“QVQLVESGGGLVQAGGSLRLSCAASGSTFGFYAMGWYRQAPGKERELVAAITGGGSTNYADSVKGRFTISRDNAKNTVYLQMNSLNPEDTAVYYCAVVQRYWYPGIVPYDYWGQGTQVTVSS”: the “polyreactivity (PSR sort gate)” value is “high polyreactivity”.

As to “QVQLVESGGGLVQAGGSLRLSCAASGSTFGGNAMGWYRQAPGKERELVAAIDSGGGTNYADSVKGRFTISRDNAKNTVYLQMNSLKPEDTAVYYCNADWAVRSTQNSSSGHVYWGQGTQVTVSS”, the “polyreactivity (PSR sort gate)” value is “low polyreactivity”.

Turning to “QVQLVESGGGLVQAGGSLRLSCAASGSTFGGNAMGWYRQAPGKERELVAAITIGGRTNYADSVKGRFTISRDNAKNTVYLQMNSLKPEDTAVYYCAKDRDQWQDYWGQGTQVTVSS”, the “polyreactivity (PSR sort gate)” value is recorded as “low polyreactivity”.

As to “QVQLVESGGGLVQAGGSLRLSCAASGSTFGGNAMGWYRQAPGKERELVASISDGGRTNYADSVKGRFTISRDNAKNTVYLQMNSLKPEDTAVYYCAADYAPVAFDYWGQGTQVTVSS”, the “polyreactivity (PSR sort gate)” value is “low polyreactivity”.

As to “QVQLVESGGGLVQAGGSLRLSCAASGSTFGGNGMGWYRQAPGKKGSWVAAISWSGGSTYYADSVKGRFTISRDNAKNTVYLQMNSLKPEDTAVYYCAARTVYRGRAYDYWGQGTQVTVSS”, the “polyreactivity (PSR sort gate)” value is recorded as “high polyreactivity”.

For the sequence “QVQLVESGGGLVQAGGSLRLSCAASGSTFGGNVMGWYRPAPGKERELVATISRSGGSTYYADSVKGRFTISRDNAKNTVYLQMNSLKPEDTAVYYCAARTLHYSPSTFYRYQYDYWGQGTQVTVSS”, the “polyreactivity (PSR sort gate)” value is on record as “high polyreactivity”.

Turning to “QVQLVESGGGLVQAGGSLRLSCAASGSTFGGYAMGWYRQAPGKERELVAAISNGDRTNYADSVKGRFTISRDNAKNTVYLQMNSLKPEDTAVYYCATQPLTWSSYRWDWRAQFDHWGQGTQVTVSS”, the “polyreactivity (PSR sort gate)” value is “low polyreactivity”.

For “QVQLVESGGGLVQAGGSLRLSCAASGSTFGGYAMGWYRQAPGKERELVAAITYSGGSTYYADSVKGRFTISRDNAKNTVYLQMNSLKPEVTAVYYCNADDDDALPWWWPYVLDVDYWGQGTQVTVSS”, the “polyreactivity (PSR sort gate)” value was “low polyreactivity”.

In the case of “QVQLVESGGGLVQAGGSLRLSCAASGSTFGGYVMGWYRQAPGKERELVAAIRRVGRTYYADSVKGRFTISRDNAKNTVYLQMNSLKPEDTAVYYCAKDNWVNYDDSHDSWGQGTQVTVSS”, the “polyreactivity (PSR sort gate)” value is reported as “low polyreactivity”.

Take “QVQLVESGGGLVQAGGSLRLSCAASGSTFGHYAMGWYRPAPGKERELVAVISRSGARTYYADSVKGRYTISRDNAKNTVYLQMNSLKPEDTAVYYCNAGPYGGNPFDYWGQGTQVTVSS”: the “polyreactivity (PSR sort gate)” value is given as “high polyreactivity”.

On to “QVQLVESGGGLVQAGGSLRLSCAASGSTFGHYAMGWYRQAPGKERELVAAISWSGASTYYADSVKGRFTISRDNAKNTVYLQMNSLKPEDTAVYYCAAESYRQTYYVGDGYEDDYWGQGTQVTVSS”, for which the “polyreactivity (PSR sort gate)” value is “low polyreactivity”.

As for “QVQLVESGGGLVQAGGSLRLSCAASGSTFGHYGMGWYRQAPGKERELVAAISYSGGSTSYADSVKGRFTISRDNAKNTVYLQMNSLKPEDTAVYYCATVRKRRYDYWGQGTQVTVSS”, the “polyreactivity (PSR sort gate)” value is on record as “low polyreactivity”.

Regarding “QVQLVESGGGLVQAGGSLRLSCAASGSTFGHYVMGWYRQATGKERELVAAISYNGGSTYYADSVKGRFTISRDNAKNTVYLQMNSLKPEDTAVYSCAARGSYSFYRRVDYWGQGTQVTVSS”, the “polyreactivity (PSR sort gate)” value is on record as “high polyreactivity”.

Turning to “QVQLVESGGGLVQAGGSLRLSCAASGSTFGKYAMGWYRQAPGKERELVAAITTGGNTSYADSVKGRFTISRDNANNTVYLQMNSLKPEDTAVYYCNAKRSFRVDYWGQGTQVTVSS”, the “polyreactivity (PSR sort gate)” value is “low polyreactivity”.

Consider “QVQLVESGGGLVQAGGSLRLSCAASGSTFGKYAMGWYRQAPGKERELVAAITTGGNTYYADSVKGRFTISRDNAKNSVYLQMNSLKPEDTAVYYCNAKRSFRVDYWGQGTQVTVSS”, for which the “polyreactivity (PSR sort gate)” value was “low polyreactivity”.

As for “QVQLVESGGGLVQAGGSLRLSCAASGSTFGKYAMGWYRQAPGKERELVATITVSGGNTNYADSVKGRFTISRDNAKNTVYLQMNSLKPEDTAVYYCAARNYVAGHKYIMNYWGQGTQVNVSS”, the “polyreactivity (PSR sort gate)” value is given as “low polyreactivity”.

In the case of “QVQLVESGGGLVQAGGSLRLSCAASGSTFGLNAMGWYRQAPGKERELVAAISYSDTTTYYADSVKGRFTISRDNAKNTVYLQMNSLKPEDTAVYYCAAEGDYAFLYDYWGQGTQVTVSS”, the “polyreactivity (PSR sort gate)” value is listed as “high polyreactivity”.

Regarding “QVQLVESGGGLVQAGGSLRLSCAASGSTFGLYAMGWYIQAPGKERELVAAISSRGSRTYYADSVKGRFTISRDNAKNTVYLQLNSLIPEDTAVYYCNALYASSVRHKVTYDYWGQGTQVTVSS”, the “polyreactivity (PSR sort gate)” value is “high polyreactivity”.

In the case of “QVQLVESGGGLVQAGGSLRLSCAASGSTFGLYAMGWYRQAPGKERELVAAISYNTGRTYYADSVKGRFTISRDNAKNTVYLQMNSLKPEDTAVYYCAAEYFIWSYTRYEYWGQGTQVTVSS”, the “polyreactivity (PSR sort gate)” value was “high polyreactivity”.

On to “QVQLVESGGGLVQAGGSLRLSCAASGSTFGNNAMGWYRPAPGKERELVAGIRRSSNTYYADSVKGRFTISRDNAKNTVYLQMNSLKPEDTAVYCCNADNILYGSTLDYWGQGTQVTVSS”, for which the “polyreactivity (PSR sort gate)” value is reported as “low polyreactivity”.

As for “QVQLVESGGGLVQAGGSLRLSCAASGSTFGNYAMGWYRQAPGKERELVAAISTSGGSTYYADSVKRRFTISRDNAKNTVYLQMNSLKPEDTAVYYCAKRLVRVRSRAVSDYYWGQGTQVTVSS”, the “polyreactivity (PSR sort gate)” value is given as “high polyreactivity”.

Turning to “QVQLVESGGGLVQAGGSLRLSCAASGSTFGNYAMGWYRQAPGKERELVAVITSAGSTYYADSVKGRFTISRDNAKNTVYLQMNSLKPDDTAVYYCNTGKHVRYYYWGQGTQVTVSS”, the “polyreactivity (PSR sort gate)” value is on record as “low polyreactivity”.

Turning to “QVQLVESGGGLVQAGGSLRLSCAASGSTFGPNAMGWYRQAPGKERELVATITYSGGSTYYADSVKGRFTISRDNAKNTVYLQMNSLKPEDTAVYYCAAVYRYSRFTYGYWGQGTQVTVSS”, the “polyreactivity (PSR sort gate)” value is on record as “high polyreactivity”.

In the case of “QVQLVESGGGLVQAGGSLRLSCAASGSTFGPNPMGWYRQAPGKERELVAAISRAGRTYYADSVKGRFTISRDNAKNTVYLQMNSLKPEDTAVYYCNAGRSYHWRAGGEYDYWGQGTQVTVSS”, the “polyreactivity (PSR sort gate)” value is “low polyreactivity”.

For “QVQLVESGGGLVQAGGSLRLSCAASGSTFGPYAMGWYRQAPGKERELVAAISSGGSTYADSVKGRFTISRDNAKNTVYLQMNSLKPEDTAVYYCAKVHGRGVYSVEYDYWVQGTQVTVSS”, the “polyreactivity (PSR sort gate)” value was “low polyreactivity”.

As for “QVQLVESGGGLVQAGGSLRLSCAASGSTFGPYAMGWYRQAPGKERELVAGISYGGGTTFYADSVKGRFTISRDNAKNTVYLQMNSLKPEDTAVYYCAATYRPNRYLEGYWGQGTQVTVSS”, the “polyreactivity (PSR sort gate)” value was “high polyreactivity”.

On to “QVQLVESGGGLVQAGGSLRLSCAASGSTFGPYAMGWYRQAPGKERELVATINSSGSTNYADSVKGRFTISRDNAKNTVYLQMKSLKPEDTAVYYCATLHYYYWYDYWGQGTQVTVSS”, for which the “polyreactivity (PSR sort gate)” value is reported as “low polyreactivity”.

On to “QVQLVESGGGLVQAGGSLRLSCAASGSTFGPYAMGWYRQAPGKERELVATISGSRSSTYYADSVKGRFTISRDNAKNTVYLQMNSLKPEDTAVYYCATDLYFDLRYDYWGQGTQVTVSS”, for which the “polyreactivity (PSR sort gate)” value is reported as “low polyreactivity”.

Consider “QVQLVESGGGLVQAGGSLRLSCAASGSTFGRNAMGWYRQAPGKERELVAAISWRSTRTYYADSVKGRFTISRDNAKNTVYLQMNSLKPEDTAVYYCAAAWRIWWYHRGEFDYWGQGTQVTVSS”, for which the “polyreactivity (PSR sort gate)” value is listed as “high polyreactivity”.
